The source of these data is patent publication US20240108688A1, “Inhibitors of the tissue factor-protease activated receptor 2 (TF-PAR2) signaling pathway for use in the treatment or prevention of heart failure (HF) and associated or resulting diseases” (priority 2020, published 2024).

Series [1] relates to permanent LAD ligation mouse model of MI.
Experimental: B), High-frequency ultrasound echocardiography obtained in parasternal long axis (PLAX) with measurement of left ventricular ejection fraction (LVEF, %) and left ventricular end diastolic volume (LVEDV, μl) on day 7 after operation. […] Ordinary one-way ANOVA, Sidak's multiple comparison test, n=4-7 animals per group.
C), Experimental design: Mice were injected with NAPc2 (1 mg/kg/d) once daily by i.p. injection from day 1 through day 7. D), High-frequency echocardiography obtained in parasternal long axis (PLAX) with measurement of LVEF, LVEDV on day 7 after LAD ligation. E), Representative blots for protein expression analysis of pERK1/2, NOX2, TGF-β1 and α-SMA in infarcted myocardium obtained from vehicle or NAPc2 treated mice. F-H, Mice were injected with NAPc2 (1 mg/kg/d) and/or vehicle (1 mg/kg/d) once daily by i.p. injection from day 1 through day 7 followed by longitudinal analysis. […] Echocardiographic studies over 4 weeks from day 7 for LVEF (%), LVEDV (p1) in PLAX M-mode; two-way ANOVA, Bonferroni's multiple comparisons test, n=6-12 animals per each group (G). Kaplan-Meier survival analysis of LAD ligated versus sham operated NAPc2 876 and vehicle treated mice after 4 weeks. Log-rank (Mantel-Cox) test, n=7-15 animals per group (H).
The subject of another series is human monocytes. Kind of series: Isolated human monocytes exposed to hypoxia (OGD) plus inflammatory cytokine cocktail, western blot. The series is classed as cell-based. As to conditions: NAPc2 200 ng/ml; cytokine cocktail 20 ng/ml plus hypoxia. An excerpt:
Representative blots and quantification. […] Representative images and quantification of replicates.
Monocytes isolation and in vitro culture: Bone marrow derived cell suspensions were isolated by flushing femurs and tibias of 8-12 weeks old mice. Cell aggregates were removed by gentle pipetting and the cell lysates were passed through a 70 μm nylon strainer to remove the cell debris. Furthermore, to enrich monocytes population, mouse monocyte isolation Kit ([…] Technologies Inc., Vancouver, BC, Canada) was used according to standard protocols provided by the manufacturer. To mimic in vivo ischemic conditions, a protocol of oxygen-glucose-deprivation (OGD) is applied along with the cytokine cocktail mix (IL-6, TNF-α and MCP-1) at concentrations of 20 ng/ml for 4 hours followed by the protein expression analysis of pERK1/2, NOX2 and TGF-β1 on isolated monocytes. […] For blocking TF-FVIIa signaling on human monocytes, isolated monocytes from healthy individuals were treated with NAPc2 in the presence of OGD along with the cytokine cocktail mix followed by the protein expression analysis of pERK1/2, NOX2 and TGF-β1.

The conditions of series [2]: human, in vivo; cited from earlier work.
The conditions of series [3]: prevention of venous thromboembolism, total knee replacement patients (ref 27); cited from earlier work.
[4] abbreviates: NAPc2 1 mg/kg/d i.p. day 1-7, western blot.
Setting [5] is: NAPc2 1 mg/kg/d i.p. starting 1 day after MI, 7 d after LAD ligation.

As to `CC(=O)Nc1cccc(-n2c(=O)n(C3CC3)c(=O)c3c(Nc4ccc(I)cc4F)n(C)c(=O)c(C)c32)c1` [trametinib, reference compound], the “cardiac function in sham-operated mice” value in series [1] (trametinib 1 mg/kg/d oral, sham surgery) is “no significant effects”.

B1: NAPc2: single-chain, non-glycosylated 85 amino acid protein, 9732 Da; blocks TF signaling and coagulation via inhibited TF-FVIIa-FX(a) complex (protein, listed as Ancylostoma caninum)
chain: KATMQCGENEKYDSCGSKECDKKCKYDGVEEEDDEEPNVPCLVRVCHQDCVCEEGFYRNKDDKCVSAEDCELDNMDFIYPGTRN
As for B1, in the series with human monocytes, the ERK1/2 phosphorylation entry is recorded as “reduced”, the NOX2 expression result is recorded as “suppressed” and the TGF-β1 activation entry is “suppressed”. In series [2], the safety entry is listed as “documented safety”. Also, the antithrombotic effect entry in series [3] is listed as “has been demonstrated”. In series [1] (NAPc2 1 mg/kg/d i.p. day 1-7, day 7 after LAD ligation), the “cardiac function (LVEF, LVEDV by echocardiography)” value was “improved cardiac function”. Also, the “cardiac infiltration of CD11b+ myeloid cells” value in series [1] (NAPc2 1 mg/kg/d i.p. day 1-7, flow cytometry of infarcted myocardium) is listed as “attenuated”. In series [1] (setting [4]), the “ERK1/2 phosphorylation in the infarcted heart” value is “diminished”, the “NOX2 expression in the infarcted heart” value is on record as “diminished”, the “TGF-β1 activation in the infarcted heart” value is given as “diminished” and the “up-regulation of the downstream target α-SMA in the infarcted heart” value is recorded as “diminished”. Besides, in series [1] (setting [5]), the “levels of NOX2 in circulating myeloid cells (PBMCs)” value is listed as “attenuated” and the “levels of active TGF-β1 in circulating myeloid cells (PBMCs)” value was “attenuated”. Also, the “cardiac fibrosis (fibrotic areas normalized to surface area)” value in series [1] (short term NAPc2 1 mg/kg/d i.p. from 1 d until 7 d post MI, longitudinal analysis, compared to vehicle) is on record as “significantly reduced”. Moreover, the “survival (Kaplan-Meier, 4 weeks)” value in series [1] (short term NAPc2 1 mg/kg/d i.p. from 1 d until 7 d post MI, LAD ligated mice) is recorded as “improved survival”. Besides, the “cardiac function in chronic MI (LVEF, LVEDV over 4 weeks)” value in series [1] (short term NAPc2 1 mg/kg/d i.p. from 1 d until 7 d post MI, compared to vehicle) is “improved cardiac function”.
